Results as given in US20120316071A1 (published 2012).

Experiments:
[1] = biological target: T1, Recombinant Human DLL4 (R&D Systems Cat#1506-D4/CF) (human, UniProt Q9NR61 27-524); assay: ECL (MSD) binding assay, immobilised DLL4, repeat experiment
T1 construct: Bought recombinant protein; also called delta-like protein 4; rHuman DLL4

[2] = biological target: T2, rHuman Notch-1/Fc Chimera, CF (R&D Systems Cat#3647-TK) (human, UniProt P46531 19-526); assay: ECL Multispot (MSD) assay, antigen spotted on plate, 10 nM Fab;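 also: purified Fab bound to antigen spots for 1 h at 20 °C, then TAG detection antibody, electrochemiluminescence compared with each well's blank, ratio of 4 or more marks a hit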
T2 construct: Bought recombinant protein

[3] = biological target: T3, rHuman CD44/Fc Chimera, CF (R&D Systems Cat#3660-CD) (human, UniProt P16070 21-220); assay: as above
T3 construct: Bought recombinant protein

[4] = biological target: T4, rHuman IGF-1 sR (insulin-like growth factor-1 soluble receptor), CF (R&D Systems Cat#391-GR) (human, UniProt P08069 31-932); assay: as above
T4 construct: Bought recombinant soluble receptor

[5] = biological target: T5, rHuman P-Cadherin/Fc Chimera, CF (R&D Systems Cat#861-PC) (human, UniProt P22223 108-654); assay: as above
T5 construct: Bought recombinant protein

[6] = biological target: T6, rHuman Erythropoietin R/Fc Chimera, CF (R&D Systems Cat#963-ER) (human, UniProt P19235 25-250); assay: as above
T6 construct: Bought recombinant protein; also called EPO R; EPO R/Fc
T6 sequence (looked up): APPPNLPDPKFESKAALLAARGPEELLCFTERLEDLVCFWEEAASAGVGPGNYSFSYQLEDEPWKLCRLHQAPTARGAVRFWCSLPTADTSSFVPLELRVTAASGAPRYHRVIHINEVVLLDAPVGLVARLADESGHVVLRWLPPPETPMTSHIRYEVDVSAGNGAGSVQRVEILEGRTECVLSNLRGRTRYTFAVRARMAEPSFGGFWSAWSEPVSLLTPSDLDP

[7] = biological target: T1, Recombinant Human DLL4 (R&D Systems …); assay: as above
[8] = biological target: T7, rHuman ErbB2/Fc Chimera, CF (R&D Systems Cat#1129-ER) (human, UniProt P04626 23-652); assay: as above
T7 construct: Bought recombinant protein

[9] = biological target: T8, rHuman EGF R/Fc Chimera, CF (R&D Systems Cat#344-ER) (human, UniProt P00533 25-645); assay: as above
T8 construct: Bought recombinant protein

[10] = biological target: T9, rHuman HGF R/c-MET/Fc Chimera, CF (R&D Systems Cat#358-MT/CF) (human, UniProt P08581 25-932); assay: as above
T9 construct: Bought recombinant protein; also called HGF R/Fc

[11] = biological target: T1, Recombinant Human DLL4 (R&D Systems …); assay: ECL (MSD) binding assay, DLL4 signal divided by blank, repeat experiment
[12] = biological target: T10, rHuman Notch-1/Fc Chimera, CF (R&D Systems Cat#3647-TK) (human, UniProt P46531 19-526); assay: ECL multispot (MSD) binding assay; antigen spotted on plate, Fab in solution, Ru-labelled anti-kappa detection;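 also: purified Fab in 1% BSA TBST incubated 1 h at 20 °C with shaking, signal compared with each well's blank, signal/blank ratio of 4 or above counted as binder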
T10 construct: Bought from R&D Systems; Fc part of the bought chimera not given

[13] = biological target: T11, rHuman CD44/Fc Chimera, CF (R&D Systems Cat#3660-CD) (human, UniProt P16070 21-220); assay: as above
T11 construct: Bought from R&D Systems; Fc part of the bought chimera not given

[14] = biological target: T12, rHuman IGF-1 sR, CF (R&D Systems Cat#391-GR) (human, UniProt P08069 31-932); assay: as above
T12 construct: Bought from R&D Systems as a soluble receptor; also called insulin-like growth factor-1 soluble receptor

[15] = biological target: T13, rHuman P-Cadherin/Fc Chimera, CF (R&D Systems Cat#861-PC) (human, UniProt P22223 108-654); assay: as above
T13 construct: Bought from R&D Systems; Fc part of the bought chimera not given

[16] = biological target: T14, rHuman Erythropoietin R/Fc Chimera, CF (R&D Systems Cat#963-ER) (human, UniProt P19235 25-250); assay: as above
T14 construct: Bought from R&D Systems; also called EPO R; EPO R/Fc; Fc part of the bought chimera not given
T14 sequence (looked up): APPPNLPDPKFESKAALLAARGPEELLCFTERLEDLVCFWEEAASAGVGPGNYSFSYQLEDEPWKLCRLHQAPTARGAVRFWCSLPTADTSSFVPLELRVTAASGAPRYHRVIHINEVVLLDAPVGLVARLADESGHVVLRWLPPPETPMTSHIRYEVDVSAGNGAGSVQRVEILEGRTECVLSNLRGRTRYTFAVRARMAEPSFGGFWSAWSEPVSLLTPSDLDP

[17] = biological target: T15, Recombinant Human DLL4 (R&D Systems Cat#1506-D4/CF) (human, UniProt Q9NR61 27-524); assay: as above
T15 construct: Bought from R&D Systems; also called delta-like protein 4; rHuman DLL4

[18] = biological target: T16, rHuman ErbB2/Fc Chimera, CF (R&D Systems Cat#1129-ER) (human, UniProt P04626 23-652); assay: as above
T16 construct: Bought from R&D Systems; also called human epidermal growth factor 2 receptor; Fc part of the bought chimera not given

[19] = biological target: T17, rHuman EGF R/Fc Chimera, CF (R&D Systems Cat#344-ER) (human, UniProt P00533 25-645); assay: as above
T17 construct: Bought from R&D Systems; also called epidermal growth factor receptor; Fc part of the bought chimera not given

[20] = biological target: T18, rHuman HGF R/c-MET/Fc Chimera, CF (R&D Systems Cat#358-MT/CF) (human, UniProt P08581 25-932); assay: as above
T18 construct: Bought from R&D Systems; also called HGF R/Fc; hepatocyte growth factor receptor; Fc part of the bought chimera not given

B1: Fab VH1-46_IGHD6-6*01_IGHJ1*01 S102A/S103P/S104F/H111F S31A & L6_IGKJ1*01 (Fab, V domains shown)
VH: QVQLVQSGAEVKKPGASVKVSCKASGYTFTAYYMHWVRQAPGQGLEWMGIINPSGGSTSYAQKFQGRVTMTRDTSTSTVYMELSSLRSEDTAVYYCAREEYAPFSAEYFQFWGQGTLVTVSS
VL: not shown
notes: Fab as for m1 (CH1 with His6/Flag tags, kappa CL); also called APFF S31A
- ECL signal [1]: 176000
- ECL signal [2]: 333
- ECL signal [3]: 379
- ECL signal [4]: 405
- ECL signal [5]: 255
- ECL signal [6]: 454
- ECL signal [7]: 138000
- ECL signal [8]: 207
- ECL signal [9]: 394
- ECL signal [10]: 398
- Signal/Noise [11]: 530

B2: Fab VH1-46_IGHD6-6*01_IGHJ1*01 S102A/S103P/S104F/H111F T30A & L6_IGKJ1*01 (Fab, V domains shown)
VH: QVQLVQSGAEVKKPGASVKVSCKASGYTFASYYMHWVRQAPGQGLEWMGIINPSGGSTSYAQKFQGRVTMTRDTSTSTVYMELSSLRSEDTAVYYCAREEYAPFSAEYFQFWGQGTLVTVSS
VL: not shown
notes: Tested as a Fab made in E. coli; The heavy chain vector (Plasmid A) adds CH1 with His6 and Flag tags; The light chain vector (Plasmid C) adds kappa CL; also called APFF T30A
- ECL signal [12]: 368
- ECL signal [13]: 396
- ECL signal [14]: 343
- ECL signal [15]: 337
- ECL signal [16]: 479
- ECL signal [17]: 178000
- ECL signal [18]: 408
- ECL signal [19]: 351
- ECL signal [20]: 353

B3: Fab VH1-46_IGHD6-6*01_IGHJ1*01 S102A/S103P/S104F/H111F T28A & L6_IGKJ1*01 (Fab, V domains shown)
VH: QVQLVQSGAEVKKPGASVKVSCKASGYAFTSYYMHWVRQAPGQGLEWMGIINPSGGSTSYAQKFQGRVTMTRDTSTSTVYMELSSLRSEDTAVYYCAREEYAPFSAEYFQFWGQGTLVTVSS
VL: not shown
notes: Fab as for m1 (CH1 with His6/Flag tags, kappa CL); also called APFF T28A
- ECL signal [1]: 181000
- ECL signal [2]: 432
- ECL signal [3]: 471
- ECL signal [4]: 408
- ECL signal [5]: 381
- ECL signal [6]: 480
- ECL signal [7]: 140000
- ECL signal [8]: 411
- ECL signal [9]: 389
- ECL signal [10]: 427
- Signal/Noise [11]: 404

B4: Fab VH1-46_IGHD6-6*01_IGHJ1*01 S102A/S103P/S104F/H111F Y33A & L6_IGKJ1*01 (Fab, V domains shown)
VH: QVQLVQSGAEVKKPGASVKVSCKASGYTFTSYAMHWVRQAPGQGLEWMGIINPSGGSTSYAQKFQGRVTMTRDTSTSTVYMELSSLRSEDTAVYYCAREEYAPFSAEYFQFWGQGTLVTVSS
VL: not shown
notes: Fab as for m1 (CH1 with His6/Flag tags, kappa CL); also called APFF Y33A
- ECL signal [1]: 59500
- ECL signal [2]: 244
- ECL signal [3]: 294
- ECL signal [4]: 308
- ECL signal [5]: 383
- ECL signal [6]: 373
- ECL signal [7]: 27000
- ECL signal [8]: 394
- ECL signal [9]: 372
- ECL signal [10]: 345
- Signal/Noise [11]: 225

B5: Fab VH1-46_IGHD6-6*01_IGHJ1*01 S102A/S103P/S104F/H111F S31A & L6_IGKJ1*01 (Fab, V domains shown)
VH: QVQLVQSGAEVKKPGASVKVSCKASGYTFTAYYMHWVRQAPGQGLEWMGIINPSGGSTSYAQKFQGRVTMTRDTSTSTVYMELSSLRSEDTAVYYCAREEYAPFSAEYFQFWGQGTLVTVSS
VL: not shown
notes: Tested as a Fab made in E. coli; The heavy chain vector (Plasmid A) adds CH1 with His6 and Flag tags; The light chain vector (Plasmid C) adds kappa CL; also called APFF S31A
- ECL signal [12]: 427
- ECL signal [13]: 235
- ECL signal [14]: 268
- ECL signal [15]: 262
- ECL signal [16]: 507
- ECL signal [17]: 176000
- ECL signal [18]: 253
- ECL signal [19]: 377
- ECL signal [20]: 358

B6: Fab VH1-46_IGHD6-6*01_IGHJ1*01 S102A/S103P/S104F/H111F T28A & L6_IGKJ1*01 (Fab, V domains shown)
VH: QVQLVQSGAEVKKPGASVKVSCKASGYAFTSYYMHWVRQAPGQGLEWMGIINPSGGSTSYAQKFQGRVTMTRDTSTSTVYMELSSLRSEDTAVYYCAREEYAPFSAEYFQFWGQGTLVTVSS
VL: not shown
notes: Tested as a Fab made in E. coli; The heavy chain vector (Plasmid A) adds CH1 with His6 and Flag tags; The light chain vector (Plasmid C) adds kappa CL; also called APFF T28A
- ECL signal [12]: 478
- ECL signal [13]: 497
- ECL signal [14]: 377
- ECL signal [15]: 477
- ECL signal [16]: 477
- ECL signal [17]: 181000
- ECL signal [18]: 316
- ECL signal [19]: 329
- ECL signal [20]: 353

B7: Fab VH1-46_IGHD6-6*01_IGHJ1*01 S102A/S103P/S104F/H111F Y33A & L6_IGKJ1*01 (Fab, V domains shown)
VH: QVQLVQSGAEVKKPGASVKVSCKASGYTFTSYAMHWVRQAPGQGLEWMGIINPSGGSTSYAQKFQGRVTMTRDTSTSTVYMELSSLRSEDTAVYYCAREEYAPFSAEYFQFWGQGTLVTVSS
VL: not shown
notes: Tested as a Fab made in E. coli; The heavy chain vector (Plasmid A) adds CH1 with His6 and Flag tags; The light chain vector (Plasmid C) adds kappa CL; also called APFF Y33A
- ECL signal [12]: 334
- ECL signal [13]: 290
- ECL signal [14]: 227
- ECL signal [15]: 178
- ECL signal [16]: 430
- ECL signal [17]: 59500
- ECL signal [18]: 298
- ECL signal [19]: 281
- ECL signal [20]: 248

B8: Fab VH1-46_IGHD6-6*01_IGHJ1*01 S102A/S103P/S104F/H111F T30A & L6_IGKJ1*01 (Fab, V domains shown)
VH: QVQLVQSGAEVKKPGASVKVSCKASGYTFASYYMHWVRQAPGQGLEWMGIINPSGGSTSYAQKFQGRVTMTRDTSTSTVYMELSSLRSEDTAVYYCAREEYAPFSAEYFQFWGQGTLVTVSS
VL: not shown
notes: Fab as for m1 (CH1 with His6/Flag tags, kappa CL); also called APFF T30A
- ECL signal [1]: 178000
- ECL signal [2]: 270
- ECL signal [3]: 439
- ECL signal [4]: 356
- ECL signal [5]: 275
- ECL signal [6]: 428
- ECL signal [7]: 140000
- ECL signal [8]: 272
- ECL signal [9]: 427
- ECL signal [10]: 413
- Signal/Noise [11]: 503
